The text below walks through data of US8835136B2, “Engineered amine dehydrogenases and methods of use thereof” (Georgia Tech Research Corporation, priority 2012, dated 2014).

Changes are numbered by the printed parent chain. Numbers in names are those of the source.

What all share (type): biochemical
A short description of data set [1]: Reductive amination of PFPA, spectrophotometric assay at 340 nm. The settings on record: 500 mM NH4Cl/NH4OH pH 9.6, 200 μM NADH; for kcat, amination of PFPA: apparent; for Km: read-out: KM, amination of PFPA. As for the experimental part: (§1) Activity of purified proteins was measured using a spectrophotometric assay at 340 nm, corresponding to the cofactor nicotinamide adenine dinucleotide (NADH, ε340=6220 M^−1 cm^−1) (Dawson, et al., Clarendon Press, (1989). For reductive amination, reactions took place in 500 mM NH4Cl/NH4OH at pH 9.6, with 200 μM NADH and 20 mM of the ketone substrate, unless otherwise specified. For oxidative deamination, reactions took place in 0.1 M NaHCO3/Na2CO3 buffer at pH 10.0, with 1 mM NAD+ with 10 mM of the amine substrate of interest. All reactions were performed at 25° C. unless otherwise specified. Enzyme was added in 10 μL aliquots in dilute concentrations. Enzyme concentrations varied upon activity levels with the substrate present, but were dilute enough to ensure linear conversion kinetics over the analytical time period (10 min to 30 min). Specific activities were then calculated from the stoichiometric conversion of cofactor as determine by the change in absorbance at 340 nm over time.
The activity of the purified protein was evaluated using a spectrophotometric assay at 340 nm as described in Section 3.2.3 at 25° C. in various concentrations of NH4Cl/NH4OH buffer pH 9.6.
Active variants were identified by the rate of change in absorbance at 340 nm, corresponding to the fastest activity. […] Some variants consumed the cofactor too quickly (<5 min) to be observed over multiple time points, and gave low absorbance in the initial time point. These variants were included for further characterization. The successful variants were sequenced (MWG Operon), and each unique sequence was expressed in pET28a/BL21 for histag purification and determination of kcat and KM values with PFPA.

A short description of data set [2]: Reductive amination, spectrophotometric assay at 340 nm. The settings on record: for Amination Activity 40 mM MIBK, kcat: 500 mM NH4Cl/NH4OH pH 9.6, 200 μM NADH, 25° C.; for Reductive amination specific activity: maximum specific activity, nonlinear fit. As for the experimental part:
as §1

Data set [3] can be described thus: Oxidative deamination, spectrophotometric assay at 340 nm. The settings on record: for Deamination Activity 40 mM 1,3-DMBA, kcat: 0.1M Glycine pH 10.0, 1 mM NAD+, 25° C.; for Oxidative deamination specific activity: maximum specific activity, 1,3-DMBA. The procedure: as §1, with “For oxidative deamination, reactions took place in 0.1 M NaHCO3/Na2CO3 buffer at pH 10.0, with 1 mM NAD+ with 10 mM of the amine substrate of interest.” left out

Assay in data set [4]: as above
The settings on record: 20 mM substrate. As for the experimental part: as §1, with “For oxidative deamination, reactions took place in 0.1 M NaHCO3/Na2CO3 buffer at pH 10.0, with 1 mM NAD+ with 10 mM of the amine substrate of interest.” left out
The enantioselectivity was initially estimated by measuring the deamination activity toward individual enantiomers of methylbenzylamine (MBA). […] A preference towards (R)-MBA over the corresponding (S)-enantiomer was evident in the discrepancies between the deamination activities of 0.586 U mg^−1 and 0.002 U mg^−1, respectively. These preliminary results were corroborated through direct measurement of the enantioselectivity of the MIBK amination in producing chiral 1,3-DMBA.

Where [5] appears, read: MIBK substrate, read-out: KM (reductive amination).
Where [6] appears, read: purified LeuDH library 10/11 hits.
The mark [7] stands for this setting: purified LeuDH library 10/11 hits, read-out: Amination of MIBK KM.
Setting [8] is: 1,3-DMBA substrate, read-out: KM (oxidative deamination).
Where [9] appears, read: purified LeuDH library 10/11 hits, read-out: Deamination of 1,3-DMBA KM.

B1: K77W N276E: PheDH-AmDH double variant, SEQ ID NO:3; PheDH library 1 hit 7F10 (protein)
chain: SLVEKTSIIKDFTLFEKMSEHEQVVFCNDPATGLRAIIAIHDTTLGPALGGCRMQPYNSVEEALEDALRLSKGMTYWCAASDVDFGGGKAVIIGDPQKDKSPELFRAFGQFVDSLGGRFYTGTDMGTNMEDFIHAMKETNCIVGVPEAYGGGGDSSIPTAMGVLYGIKATNKMLFGKDDLGGVTYAIQGLGKVGYKVAEGLLEEGAHLFVTDINEQTLEAIQEKAKTTSGSVTVVASDEIYSQEADVFVPCAFGGVVNDETMKQFKVKAIAGSANEQLLTEDHGRHLADKGILYAPDYIVNSGGLIQVADELYEVNKERVLAKTKHIYDAILEVYQQAELDQITTMEAANRMCEQRMAARGRRNSFFTSSVKPKWDIRN
Regarding B1, in data set [1], the “kcat, amination of PFPA” value came out at 2.63 s⁻¹ and the Michaelis-Menten constant (Km) stood at 5.32 mM. In data set [1] (listed as 7F10), the “kcat, amination of PFPA” value was 2.631 ± 0.159 s⁻¹ and the Km was 5.3 ± 0.6 mM.

B2: Lys77Met: B. badius PheDH single variant (protein, listed as Bacillus badius)
chain: B1 chain with W77M, E276N
As for B2, the “Amination Activity 40 mM MIBK, kcat” value in data set [2] came to 0.0009 ± 0.000 s⁻¹. Further, in data set [3], the “Deamination Activity 40 mM 1,3-DMBA, kcat” value was found to be 0.0033 ± 0.000 s⁻¹.

B3: Asn276Val: B. badius PheDH single variant (protein, listed as Bacillus badius)
chain: B1 chain with W77K, E276V
Turning to B3, the “Amination Activity 40 mM MIBK, kcat” value in data set [2] is listed as “n.m”. Also, the “Deamination Activity 40 mM 1,3-DMBA, kcat” value in data set [3] was determined as 0.0016 ± 0.000 s⁻¹.

B4: K67M: LeuDH single variant, library 1 (protein, listed as Bacillus stearothermophilus)
chain: ELFQYMEKYDYEQVLFCQDKESGLKAIIVIHDTTLGPALGGTRMWMYNSEEEALEDALRLARGMTYMNAAAGLNLGGGKTVIIGDPRKDKNEAMFRAFGRFIQGLNGRYITAEDVGTTVADMDIIYQETDYVTGISPEFGSSGNPSPATAYGVYRGMKAAAKEAFGSDSLEGKVVAVQGVGNVAYHLCRHLHEEGAKLIVTDINKEAVARAVEEFGAKAVDPNDIYGVECDIFAPCALGGIINDQTIPQLKAKVIAGSADNQLKEPRHGDMIHEMGIVYAPDYVINAGGVINVADELYGYNRERAMKKIEQIYDNIEKVFAIAKRDNIPTYVAADRMAEERIETMRKARSQFLQNGHHILSRRRAR
On to B4, for which, in data set [2] (MIBK), the “activity for reductive amination” value stood at 0.2 mU mg^−1 and the “Reductive amination specific activity” value was found to be 0.0002 U mg^−1 protein. In addition, in data set [3], the “activity in the oxidative deamination of racemic 1,3-DMBA” value came to 3.4 mU mg^−1 and the “Oxidative deamination specific activity” value was 0.0034 U mg^−1 protein.

B5: K67M/E113V/N261C/V290C: LeuDH-AmDH variant, SEQ ID NO:9, library 10 (protein)
chain: B4 chain with E113V, N261C, V290C
For B5, the Km turned out to be 21.6 mM in data set [2] (setting [5]), 21.6 ± 11.5 mM in data set [2] (setting [7]), 14.8 mM in data set [3] (setting [8]) and 14.8 ± 6.1 mM in data set [3] (setting [9]). The “Reductive amination specific activity” value in data set [2] (MIBK) was found to be 0.236 U mg^−1 protein. The “Amination of MIBK Vmax” value in data set [2] (setting [6]) amounted to 0.236 ± 0.04. Further, the “Oxidative deamination specific activity” value in data set [3] was 1.76 U mg^−1 protein. For the same molecule, in data set [3] (setting [6]), the “Deamination of 1,3-DMBA Vmax” value was determined as 1.76 ± 0.20.

B6: K67M/E113V/N261V/V290C: LeuDH-AmDH variant, SEQ ID NO:8, library 10 (protein)
chain: B4 chain with E113V, N261V, V290C
With B6, in data set [2] (20 mM substrate), the “Specific activity, acetophenone” value is recorded as 3.5 mU mg^−1 protein; the “Specific activity, cyclohexanone” value is 18.8 mU mg^−1 protein; the “Specific activity, ethyl pyruvate” value is reported as 19.8 mU mg^−1 protein; the “Specific activity, ethyl-3-oxohexanoate” value stood at 6.4 mU mg^−1 protein. The “Specific activity, methyl acetoacetate” value in data set [2] (20 mM substrate) stood at 4.5 mU mg^−1 protein. Further, the Km in data set [2] (setting [5]) worked out at 10.3 mM. Besides, the “Reductive amination specific activity” value in data set [2] (MIBK) is recorded as 0.089 U mg^−1 protein. Moreover, the “Amination of MIBK Vmax” value in data set [2] (setting [6]) was determined as 0.084 ± 0.01. Further, the Michaelis-Menten constant (Km) in data set [2] (setting [7]) worked out at 21 ± 8.5 mM. In data set [4], the “Specific activity, (R)-MBA” value is listed as 476.5 mU mg^−1 protein and the “Specific activity, (S)-MBA” value is 5.0 mU mg^−1 protein. The “Specific activity, (R/S)-MBA” value in data set [3] (40 mM racemic, 20 mM of each enantiomer) worked out at 484.0 mU mg^−1 protein. In addition, the Km in data set [3] (setting [8]) is 30.9 mM. For the same molecule, the “Oxidative deamination specific activity” value in data set [3] came out at 2.81 U mg^−1 protein. For the same molecule, the “Deamination of 1,3-DMBA Vmax” value in data set [3] (setting [6]) was 2.894 ± 0.44. The Km in data set [3] (setting [9]) was determined as 33.1 ± 13 mM.

B7: K67M, E113V: LeuDH-AmDH variant, SEQ ID NO:5 (protein)
chain: B4 chain with E113V
Take B7: the “Reductive amination specific activity” value in data set [2] (MIBK) is reported as 0.015 U mg^−1 protein. Moreover, the Km in data set [3] (setting [8]) amounted to 48 mM. Besides, the “Oxidative deamination specific activity” value in data set [3] came to 0.65 U mg^−1 protein.

For orientation: Km means the concentration of substrate that gives half-maximal velocity.
